B1: MAS_10 (long peptide of Proto-oncogene Mas: the last ten residues) (peptide)
peptide: Biotin-CNTVTVETVV
notes: also called MAS long; source: synthetic peptide (JPT Peptide Technologies)
B2: TTC24_05 (short peptide of Tetratricopeptide repeat protein 24: GSGAG and the last five residues) (peptide)
peptide: Biotin-GSGAGICTIV
notes: also called TTC24 short; source: synthetic peptide (JPT Peptide Technologies)
B3: CYSLTR2_05 (short peptide of Cysteinyl leukotriene receptor 2: GSGAG and the last five residues) (peptide)
peptide: Biotin-GSGAGKETRV
notes: also called CYSLTR2 short; source: synthetic peptide (JPT Peptide Technologies)
B4: SCRIB-3/4 (MBP fusion of the third of the four PDZ domains of SCRIB) (domain or fragment)
chain: EGPYPVEEIRLPRAGGPLGLSIVGGSDHSSHPFGVQEPGVFISKVLPRGLAARSGLRVGDRILAVNGQDVRDATHQEAVSALLRPCLELSLLVRRDP
notes: also called MBP-PDZ analyte SCRIB-3/4; source: E. coli BL21 DE3, purified (amylose column, Superdex 75 gel filtration)
B5: TANC1_10 (long peptide of Tetratricopeptide repeat, ankyrin repeat and coiled-coil domain-containing protein 1: the last ten residues) (peptide)
peptide: Biotin-PKRSFIESNV
notes: also called TANC1 long; source: synthetic peptide (JPT Peptide Technologies)
B6: TAX1_10 (long peptide of the Trans-activating transcriptional regulatory protein of HTLV-1: the last ten residues) (peptide)
peptide: Biotin-SEKHFRETEV
notes: also called TAX1 long; HTLV1 Tax1; source: synthetic peptide (JPT Peptide Technologies)
B7: 16E6 (long peptide of HPV16 early protein E6: the last ten residues) (peptide)
peptide: Biotin-SSRTRRETQL
notes: source: synthetic peptide (JPT Peptide Technologies)
B8: TTC24_10 (long peptide of Tetratricopeptide repeat protein 24: the last ten residues) (peptide)
peptide: Biotin-PMESGICTIV
notes: also called TTC24 long; source: synthetic peptide (JPT Peptide Technologies)

Where “and” joins values, the source holds several entries; their conditions need not be identical. Equal entries are not always repeated. Ends that are not written are not given here. * marks the point of attachment. Biotin = O=C1N[C@H]2[C@H](CS[C@H]2CCCCC(=O)*)N1

Holding throughout (experiment): SPR
Settings in all cases: both partners purified

The target in assay [1] is T1, MAGI1-3/6 (MBP fusion of the third of the six PDZ domains of MAGI1) (mouse, UniProt Q6RHR9-1 613-752).
T1 construct: source: E. coli BL21 DE3, purified (amylose column, Superdex 75 gel filtration)
T1 sequence (Q6RHR9 613-752): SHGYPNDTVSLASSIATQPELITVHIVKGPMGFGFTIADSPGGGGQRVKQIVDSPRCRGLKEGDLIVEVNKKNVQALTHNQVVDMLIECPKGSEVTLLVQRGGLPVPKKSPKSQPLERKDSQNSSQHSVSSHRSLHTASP

Assay [2] addresses B4.
The target in assay [3] is T2, SCRIB-34/4 (MBP fusion of the tandem of the third and fourth PDZ domains of SCRIB) (human, UniProt Q14160-1 997-1193).
T2 construct: also called MBP-PDZ analyte SCRIB-34/4; tandem PDZ construct; source: E. coli BL21 DE3, purified (amylose column, Superdex 75 gel filtration)
T2 sequence (looked up): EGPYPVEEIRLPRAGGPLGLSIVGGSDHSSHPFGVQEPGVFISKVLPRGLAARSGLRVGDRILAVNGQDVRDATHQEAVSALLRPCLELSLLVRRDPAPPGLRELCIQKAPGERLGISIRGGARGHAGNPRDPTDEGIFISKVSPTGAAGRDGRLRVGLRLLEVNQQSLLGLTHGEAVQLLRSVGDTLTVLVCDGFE

Assay [4] has as its target T3, MAGI1-2/6 (MBP fusion of the second of the six PDZ domains of MAGI1) (mouse, UniProt Q6RHR9-1 448-572).
T3 construct: source: E. coli BL21 DE3, purified (amylose column, Superdex 75 gel filtration)

For assay [5], the target named is T4, 16E6_05 (short peptide of HPV16 early protein E6: GSGAG and the last five residues) (human papilloma virus 16, biotin at N-terminus).
T4 construct: also called 16E6 short; source: synthetic peptide (JPT Peptide Technologies)

Assay [6] addresses T5, TAX1_05 (short peptide of the Trans-activating transcriptional regulatory protein of HTLV-1: GSGAG a (HTLV-1A, biotin at N-terminus)).
T5 construct: source: synthetic peptide (JPT Peptide Technologies)

Assay [7] has as its target T3, MAGI1-2/6 (MBP fusion of the second of …). This is another data set of the same source.
Assay [8] addresses B4. This is another data set of the same source.
In assay [9] the target is T2, SCRIB-34/4 (MBP fusion of the tandem of …). The source holds these as a separate data set.
Assay [10] concerns the target T1, MAGI1-3/6 (MBP fusion of the third of …). The source holds these as a separate data set.
The target of assay [11] is T6, SCRIB-4/4 (MBP fusion of the fourth of the four PDZ domains of SCRIB) (human, UniProt Q14160-1 1097-1193).
T6 construct: also called MBP-PDZ analyte SCRIB-4/4; source: E. coli BL21 DE3, purified (amylose column, Superdex 75 gel filtration)
T6 sequence (looked up): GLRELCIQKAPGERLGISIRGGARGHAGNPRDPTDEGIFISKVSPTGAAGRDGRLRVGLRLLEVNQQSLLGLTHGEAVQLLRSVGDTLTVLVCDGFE

The target of assay [12] is B4. The source holds these as a separate data set.
Assay [13] has as its target T2, SCRIB-34/4 (MBP fusion of the tandem of …). The source holds these as a separate data set.
Assay [14] deals with T1, MAGI1-3/6 (MBP fusion of the third of …). The source holds these as a separate data set.
In assay [15] the target is B4. The source holds these as a separate data set.
Assay [16] has as its target T2, SCRIB-34/4 (MBP fusion of the tandem of …). The source holds these as a separate data set.

For orientation: Kd means the constant that tells how readily two partners part at equilibrium. A low value points to higher affinity.

T3 sequence (Q6RHR9 448-572): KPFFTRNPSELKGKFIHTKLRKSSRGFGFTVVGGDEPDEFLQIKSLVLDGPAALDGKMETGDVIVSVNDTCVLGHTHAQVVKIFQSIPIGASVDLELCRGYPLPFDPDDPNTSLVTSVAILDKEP

For the molecule B1, the Kd in assay [1] was determined as 123 µM; in [2], 73 µM; in [3], 3 µM.
For B2, the Kd is 65 µM in [4], 34 µM in assay [1], 239 µM in assay [2] and 25 µM in assay [3].
Taken in the same sequence, the figures for B3 were 30 µM, 21 µM, 103 µM and 10 µM.
On to B4, for which the figures for the Kd in assay [5] and in assay [6] were 12 µM and 96 µM, respectively.
Regarding B5, the figures for the Kd in assay [7], in assay [8] and in assay [9] were 287 µM, 39 µM and 2 µM, respectively.
For the molecule B6, the Kd came out at 53 µM in assay [7], 1230 µM in assay [10], 29 µM in assay [8] and 48 µM in assay [11].
Consider B7, for which the Kd in assay [7] is 3 µM and 9 µM; in assay [8] it was 18 µM; in assay [9] it was 3 µM; in assay [12], 15 µM; in assay [13], 3 µM.
B8: the values for the Kd in [14], in assay [15] and in assay [16] were 37 µM, 117 µM and 49 µM, respectively.

Source of the values: article PMC3206016, “Putting into Practice Domain-Linear Motif Interaction Predictions for Exploration of Protein Networks” (PLoS ONE, 2011).
